From patent US10654908B2, “Isolated T cell receptors and methods of use therefor” (University of Virginia Patent Foundation, priority 2014, dated 2020)

System: pIRS-2 pulsed C1R-A2 or C1R-AAD target cells
Experiment: IFN-γ ELISA of TCR-expressing human CD8 T-cells with pulsed C1R-A2 or C1R-AAD targets (pIRS-2)
Assay type: cell-based
Details: 18-20 hours co-culture
Method: Human CD8 T-cells were electroporated with IVT RNA encoding murine TCR αβ chains specific for pIRS-2 (pIRS2 BK TCR; FIG. 10A; SEQ ID NO: 2) or pDesmuslin (A10 (right to left hatched boxes) or A11 (left to right hatched boxes) TCR chains; FIG. 10B), and assayed 12-14 hours later. TCR-expressing human CD8 T-cells were co-cultured for 18-20 hours with C1R-A2 or C1R-AAD pulsed or unpulsed target cells. Supernatants were then harvested and IFN-γ was detected by ELISA. No RNA controls underwent electroporation with no addition of IVT RNA (open squares).

B1: pIRS2 BK TCR: second murine TCR specific for the IRS-2 phosphopeptide; α chain SEQ ID NO: 8, β chain SEQ ID NO: 10 (protein, listed as Mus musculus)
alpha: MLLALLPVLGIHFVLRDAQAQSVTQPDARVTVSEGASLQLRCKYSYSGTPYLFWYVQYPRQGLQLLLKYYSGDPVVQGVNGFEAEFIKSNSSFHLRKASVHWSDSAVYFCAVSAGSGGKLTLGAGTRLQVNLDIQNPEPAVYQLKDPRSQDSTLCLFTDFDSQVNVPKTMESGTFIADKTVLDMKAMDSKSNGAIAWSNQTSFTCQDIFKETNATYPSSDVPCDATLTEKSFETDMNLNFQNLSVMGLRILLLKVAGFNLLMTLRLWSS
beta: MGSRLFFVVLILLCAKHMEAAVTQSPRSKVAVTGGKVTLSCHQANNHDYMYWYRQDTGHGLRLIHYSYVADSTEKGDIPDGYKASRPSQENFSLILELASLSQTAVYFCASSDRDNYAEQFFGPGTRLTVLEDLRNVTPPKVSLFEPSKAEIANKQKATLVCLARGFFPDHVELSWWVNGKEVRSGVSTDPQAYKESNYSYCLSSRLRVSATFWHNPRNHFRCQVQFHGLSEEDKWPEGSPKPVTQNISAEAWGRADCGITSASYHQGVLSATILYEILLGKATLYAVLVSGLVLMAMVKKKNS
  recognition of HLA-A2+ targets and effector function (IFN-γ ELISA): conferred recognition of HLA-A2+ targets and effector function
